The values below come from patent CN115992129A (YEASEN BIOLOGICAL TECH SHANGHAI CO LTD, dated 2023).

The target in the test is T1, BSA (UniProt P02769 25-607).
T1 construct: Negative control antigen in ELISA; also called BSA对照
Put plainly: ELISA, BSA coated and blocked as control, HRP anti-IgY secondary. A general note: In an ELISA, binding on a coated surface is turned into a signal by an enzyme label.

T1 sequence (P02769 25-607 limits assumed): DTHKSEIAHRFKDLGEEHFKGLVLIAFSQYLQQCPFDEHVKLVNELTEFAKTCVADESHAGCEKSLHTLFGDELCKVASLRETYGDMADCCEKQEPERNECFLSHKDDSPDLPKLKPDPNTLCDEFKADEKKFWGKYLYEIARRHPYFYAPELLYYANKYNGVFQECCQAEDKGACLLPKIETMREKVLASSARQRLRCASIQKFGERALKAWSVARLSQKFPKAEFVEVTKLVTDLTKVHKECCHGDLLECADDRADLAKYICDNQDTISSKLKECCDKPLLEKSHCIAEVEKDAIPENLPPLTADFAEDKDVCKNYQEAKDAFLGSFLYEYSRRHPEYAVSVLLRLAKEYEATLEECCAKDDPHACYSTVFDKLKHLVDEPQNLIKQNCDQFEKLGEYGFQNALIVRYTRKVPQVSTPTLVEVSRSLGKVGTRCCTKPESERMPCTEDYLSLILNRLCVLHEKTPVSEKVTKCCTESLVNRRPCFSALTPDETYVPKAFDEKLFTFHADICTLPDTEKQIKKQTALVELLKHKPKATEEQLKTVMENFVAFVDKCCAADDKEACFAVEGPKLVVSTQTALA

B1: ProteinA抗体IgY-81 (antibody, V domains shown)
VH: AVTLDESGGGLQTPGGALSLVCKASGFTFSSNGMGWVRQAPGKGLEYVASISNDGSLTDYASPVKGRATISRDNGQSTVRLQLNNLRAEDTGTYYCAKSPGGGWLADPIDAWGRGTEVIVSS
VL: QAALTQPASVSANPGETVQITCSGGGSSRYYGWYQQKSPGSAPVTLIYDNINRPSGIPSRFSGSTSGSTGTLSITGVRAEDEAVYYCGSFDSSGTGIFGAGTTLTVL
notes: Coating (capture) antibody in the sandwich ELISA
Consider B1, for which the binding result was “no binding (tested: 1μg/ml, two-fold dilutions)”.

B2: ProteinA抗体IgY-80 (antibody, V domains shown)
VH: AVTLDESGGGLQTPGGTLSLVCKASGFTFSDRGMHWVRQAPGKGLEWVAGTYTSGSITYYAPAVNGRATISRDNGQSTLRLQLNNLRAEDSGTYYCARDFGPSGWNAGSIDAWGHGTEVIVSS
VL: QAALTQPSSVSANLGGTVKITCSGGGSRYGYMYGWIQQTSPGSAPVTVIYDNTNRPSNIPSRFSGSLSGSTNTLTITGVQAEDEAVYFCGSYEGTTLTFGAGTTLTVL
notes: Biotin-conjugated as the detection antibody in the sandwich ELISA
Turning to B2, the binding result is on record as “no binding (tested: 1μg/ml, two-fold dilutions)”.
